In patent US11278600B2, “Human alpha-galactosidase variants” (Codexis, Inc., priority 2014, dated 2022):

B1: 531 (protein)
chain: LDNGLARTPTMGWLHWERFMCNLDCQEEPDSCISEKLFMEMAERMVSEGWKDAGYEYLCIDDCWMAPQRDSEGRLQADPQRFPHGIRQLANHVHSKGLKLGIYADVGNKTCAGFPGSFGYYDIDAQTFADWGVDLLKFDGCYCDSLENLADGYKHMSLALNRTGRSIVYSCEWPLYMWPFQHPNYTEIRQYCNHWRNFADIDDSWASIKSILDWTSRNQERIVDVAGPGGWNDPDMLVIGNFGLSWDQQVTQMALWAIMAAPLFMSNDLRHISPQAKALLQDKDVIAINQDPLGKQGYQLRKGDNFEVWERPLSGDAWAVAIINRQEIGGPRSYTIPVASLGKGVACNPACFITQLLPVKRQLGFYNWTSRLKSHINPTGTVLLQLENTMQMSLKDLL
modifications: Synthetic Polypeptide sequence of Variant No. 531 of mature Human GLA
B2: 532 (protein)
chain: LDNGLARTPTMGWLHWERFMCNLDCQEEPDSCISEKLFMEMAERMVSEGWKDAGYEYLCIDDCWMAPQRDSEGRLQADPQRFPHGIRQLANHVHSKGLKLGIYADVGNKTCAGFPGSFGYYDIDAQTFADWGVDLLKFDGCYCDSLENLADGYKHMSLALNRTGRSIVYSCEWPLYMWPFQMPNYTEIRQYCNHWRNFADIDDSWASIKSILDWTSRNQERIVDVAGPGGWNDPDMLVIGNFGLSWDQQVTQMALWAIMAAPLFMSNDLRHISPQAKALLQDKDVIAINQDPLGKQGYQLRKGDNFEVWERPLSGDAWAVAIINRQEIGGPRSYTIPVASLGKGVACNPACFITQLLPVKRQLGFYNWTSRLKSHINPTGTVLLQLENTMQMSLKDLL
modifications: Synthetic Polypeptide sequence of Variant No. 532 of mature Human GLA
B3: 533 (protein)
chain: LDNGLARTPTMGWLHWERFMCNLDCQEEPDSCISEKLFMEMAERMVSEGWKDAGYEYLCIDDCWMAPQRDSEGRLQADPQRFPHGIRQLANHVHSKGLKLGIYADVGNKTCAGFPGSFGYYDIDAQTFADWGVDLLKFDGCYCDSLENLADGYKHMSLALNRTGRSIVYSCEWPLYMWPFQQPNYTEIRQYCNHWRNFADIDDSWASIKSILDWTSRNQERIVDVAGPGGWNDPDMLVIGNFGLSWDQQVTQMALWAIMAAPLFMSNDLRHISPQAKALLQDKDVIAINQDPLGKQGYQLRKGDNFEVWERPLSGDAWAVAIINRQEIGGPRSYTIPVASLGKGVACNPACFITQLLPVKRQLGFYNWTSRLKSHINPTGTVLLQLENTMQMSLKDLL
modifications: Synthetic Polypeptide sequence of Variant No. 533 of mature Human GLA
B4: 534 (protein)
chain: LDNGLARTPTMGWLHWERFMCNLDCQEEPDSCISEKLFMEMAERMVSEGWKDAGYEYLCIDDCWMAPQRDSEGRLQADPQRFPHGIRQLANHVHSKGLKLGIYADVGNKTCAGFPGSFGYYDIDAQTFADWGVDLLKFDGCYCDSLENLADGYKHMSLALNRTGRSIVYSCEWPLYMWPFQRPNYTEIRQYCNHWRNFADIDDSWASIKSILDWTSRNQERIVDVAGPGGWNDPDMLVIGNFGLSWDQQVTQMALWAIMAAPLFMSNDLRHISPQAKALLQDKDVIAINQDPLGKQGYQLRKGDNFEVWERPLSGDAWAVAIINRQEIGGPRSYTIPVASLGKGVACNPACFITQLLPVKRQLGFYNWTSRLKSHINPTGTVLLQLENTMQMSLKDLL
modifications: Synthetic Polypeptide sequence of Variant No. 534 of mature Human GLA
B5: 535 (protein)
chain: LDNGLARTPTMGWLHWERFMCNLDCQEEPDSCISEKLFMEMAERMVSEGWKDAGYEYLCIDDCWMAPQRDSEGRLQADPQRFPHGIRQLANHVHSKGLKLGIYADVGNKTCAGFPGSFGYYDIDAQTFADWGVDLLKFDGCYCDSLENLADGYKHMSLALNRTGRSIVYSCEWPLYMWPFQTPNYTEIRQYCNHWRNFADIDDSWASIKSILDWTSRNQERIVDVAGPGGWNDPDMLVIGNFGLSWDQQVTQMALWAIMAAPLFMSNDLRHISPQAKALLQDKDVIAINQDPLGKQGYQLRKGDNFEVWERPLSGDAWAVAIINRQEIGGPRSYTIPVASLGKGVACNPACFITQLLPVKRQLGFYNWTSRLKSHINPTGTVLLQLENTMQMSLKDLL
modifications: Synthetic Polypeptide sequence of Variant No. 535 of mature Human GLA
B6: 536 (protein)
chain: LDNGLARTPTMGWLHWERFMCNLDCQEEPDSCISEKLFMEMAERMVSEGWKDAGYEYLCIDDCWMAPQRDSEGRLQADPQRFPHGIRQLANHVHSKGLKLGIYADVGNKTCAGFPGSFGYYDIDAQTFADWGVDLLKFDGCYCDSLENLADGYKHMSLALNRTGRSIVYSCEWPLYMWPFQVPNYTEIRQYCNHWRNFADIDDSWASIKSILDWTSRNQERIVDVAGPGGWNDPDMLVIGNFGLSWDQQVTQMALWAIMAAPLFMSNDLRHISPQAKALLQDKDVIAINQDPLGKQGYQLRKGDNFEVWERPLSGDAWAVAIINRQEIGGPRSYTIPVASLGKGVACNPACFITQLLPVKRQLGFYNWTSRLKSHINPTGTVLLQLENTMQMSLKDLL
modifications: Synthetic Polypeptide sequence of Variant No. 536 of mature Human GLA
B7: 537 (protein)
chain: LDNGLARTPTMGWLHWERFMCNLDCQEEPDSCISEKLFMEMAERMVSEGWKDAGYEYLCIDDCWMAPQRDSEGRLQADPQRFPHGIRQLANHVHSKGLKLGIYADVGNKTCAGFPGSFGYYDIDAQTFADWGVDLLKFDGCYCDSLENLADGYKHMSLALNRTGRSIVYSCEWPLYMWPFQYPNYTEIRQYCNHWRNFADIDDSWASIKSILDWTSRNQERIVDVAGPGGWNDPDMLVIGNFGLSWDQQVTQMALWAIMAAPLFMSNDLRHISPQAKALLQDKDVIAINQDPLGKQGYQLRKGDNFEVWERPLSGDAWAVAIINRQEIGGPRSYTIPVASLGKGVACNPACFITQLLPVKRQLGFYNWTSRLKSHINPTGTVLLQLENTMQMSLKDLL
modifications: Synthetic Polypeptide sequence of Variant No. 537 of mature Human GLA
B8: 538 (protein)
chain: LDNGLARTPTMGWLHWERFMCNLDCQEEPDSCISEKLFMEMAERMVSEGWKDAGYEYLCIDDCWMAPQRDSEGRLQADPQRFPHGIRQLANHVHSKGLKLGIYADVGNKTCAGFPGSFGYYDIDAQTFADWGVDLLKFDGCYCDSLENLADGYKHMSLALNRTGRSIVYSCEWPLYMWPFQKPNYTEIRQYCNHWRNFADIDDSWASIKSILDWTSRNQERIVDVAGPGGWNDPDMLVIGNFGLSWDQQVTQMALWAIMAAPLFMSNDLRHISPQAKALLQDKDVICINQDPLGKQGYQLRKGDNFEVWERPLSGDAWAVAIINRQEIGGPRSYTIPVASLGKGVACNPACFITQLLPVKRQLGFYNWTSRLKSHINPTGTVLLQLENTMQMSLKDLL
modifications: Synthetic Polypeptide sequence of Variant No. 538 of mature Human GLA

Columns and labels:
Type in all cases: biochemical
[1] = HTP-analysis of supernatants pretreated with base (MUGal hydrolysis); settings: activity of the variant/activity of Rd3BB (SEQ ID NO: 13); challenge at pH 9.7
Method in brief: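 GLA variants were secreted by transformed INVSc1 yeast grown 66-84 h at 30° C. Supernatants were exposed to neutral-to-basic buffers (pH 7.0-9.7) at 37° C for 1-18 h, then assayed with MUGal in acidic citrate/McIlvaine buffer, with fluorescence read after quenching.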

[2] = HTP-analysis of yeast culture supernatants, no challenge (MUGal hydrolysis); settings: activity of the variant/activity of Rd3BB (SEQ ID NO: 13)
Method in brief: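 GLA variants expressed in yeast INVSc1, secreted into SD-Ura broth over 66-84 h at 30° C; clarified supernatants tested without challenge. Supernatant mixed with McIlvaine buffer pH 4.8 and 2 mM MUGal (citrate/KCl, pH 4.6), 37° C for 30-180 min, carbonate-quenched, fluorescence Ex 355/Em 448 nm.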

[3] = HTP-analysis of supernatants pretreated with acid (MUGal hydrolysis); settings: activity of the variant/activity of Rd3BB (SEQ ID NO: 13); challenge at pH 3.7
Method in brief: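 Yeast INVSc1 supernatant, GLA variants; acid challenge: McIlvaine pH 3.3-4.3, 37° C., 1-3 h. Assay: MUGal in McIlvaine pH 4.8 plus citrate pH 4.3, 37° C., 30-180 min, Na2CO3 stop, Ex 355/Em 448 nm.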

| Molecule | Relative Activity of GLA Variants After Challenge at pH 9.7 [1] | Relative Activity of GLA Variants After No Challenge (NC) [2] | Relative Activity of GLA Variants After Challenge at pH 3.7 [3] |
| --- | --- | --- | --- |
| B1 | ++ (++ = >5 to 10 relative activity over Rd3BB (SEQ ID NO: 13)) | + (+ = 1.5 to 5 relative activity over Rd3BB (SEQ ID NO: 13)) | + (+ = 1.5 to 5 relative activity over Rd3BB (SEQ ID NO: 13)) |
| B2 | ++ (++ = >5 to 10 relative activity over Rd3BB (SEQ ID NO: 13)) | + (+ = 1.5 to 5 relative activity over Rd3BB (SEQ ID NO: 13)) | + (+ = 1.5 to 5 relative activity over Rd3BB (SEQ ID NO: 13)) |
| B3 | ++ (++ = >5 to 10 relative activity over Rd3BB (SEQ ID NO: 13)) | + (+ = 1.5 to 5 relative activity over Rd3BB (SEQ ID NO: 13)) | + (+ = 1.5 to 5 relative activity over Rd3BB (SEQ ID NO: 13)) |
| B4 | ++ (++ = >5 to 10 relative activity over Rd3BB (SEQ ID NO: 13)) | + (+ = 1.5 to 5 relative activity over Rd3BB (SEQ ID NO: 13)) | + (+ = 1.5 to 5 relative activity over Rd3BB (SEQ ID NO: 13)) |
| B5 | ++ (++ = >5 to 10 relative activity over Rd3BB (SEQ ID NO: 13)) | + (+ = 1.5 to 5 relative activity over Rd3BB (SEQ ID NO: 13)) | + (+ = 1.5 to 5 relative activity over Rd3BB (SEQ ID NO: 13)) |
| B6 | ++ (++ = >5 to 10 relative activity over Rd3BB (SEQ ID NO: 13)) | + (+ = 1.5 to 5 relative activity over Rd3BB (SEQ ID NO: 13)) | + (+ = 1.5 to 5 relative activity over Rd3BB (SEQ ID NO: 13)) |
| B7 | ++ (++ = >5 to 10 relative activity over Rd3BB (SEQ ID NO: 13)) | + (+ = 1.5 to 5 relative activity over Rd3BB (SEQ ID NO: 13)) | + (+ = 1.5 to 5 relative activity over Rd3BB (SEQ ID NO: 13)) |
| B8 | + (+ = 1.5 to 5 relative activity over Rd3BB (SEQ ID NO: 13)) | + (+ = 1.5 to 5 relative activity over Rd3BB (SEQ ID NO: 13)) | + (+ = 1.5 to 5 relative activity over Rd3BB (SEQ ID NO: 13)) |
